Key:
[1] = molecular target: T1, mOrai1-hOrai1 ECL2 (KPPAE) protein (human/mouse chimera, UniProt Q8BWG9 1-304 (mouse entry)); assay: FACS, 293EBNA; parameters: concentration or dose not given beside the values
T1 construct: also called Ch
Excerpt: (§1) FIG. 16A-D illustrates the results of FACS analysis showing binding to the indicated mOrai1-hOrai1 ECL2 chimeric mutants expressed on the surface of HEK-293-EBNA cells. Transfected cells were stained first with recombinant monoclonal antibodies then counter-stained with a secondary phycoerythrin-labeled goat (“Gt”) anti-human (“Hu”) IgG F(ab′)₂ antibody fragment and visualized using FACS. In FIG. 16B and FIG. 16D, The values of Relative Fluorescence Intensity as Percent of Control (RFI-POC) are calculated from the relative fluorescence intensity geometric mean (Geo Mean). The geometric mean is an average calculated by multiplying a series of numbers and taking the nth root where n is the number of numbers in the series. It is a statistical average of a set of transformed numbers often used to represent a central tendency in a highly variable data set that minimizes the effects of extreme values.
(§2) Table 11A and Table 11B feature a schematic representation of the POC data from FIG. 16B and FIG. 16D, respectively, where the binding results are recorded as (+++) denoting binding POC from 40% to 100%, (++) for POC of 5% to less than 40%, (+) for POC from 1% to less than 5% and (−) as lack of binding with POC less than 1%.

[2] = molecular target: T2, mOrai1-hOrai1 ECL2 (…) protein (human/mouse chimera, UniProt Q8BWG9 1-304 (mouse entry)); assay: FACS, 293EBNA; parameters: concentration or dose not given beside the values
T2 construct: also called Ch
Excerpt: as §1, §2
T2 sequence (Q8BWG9 other isoform, or with tags, fused parts or gaps): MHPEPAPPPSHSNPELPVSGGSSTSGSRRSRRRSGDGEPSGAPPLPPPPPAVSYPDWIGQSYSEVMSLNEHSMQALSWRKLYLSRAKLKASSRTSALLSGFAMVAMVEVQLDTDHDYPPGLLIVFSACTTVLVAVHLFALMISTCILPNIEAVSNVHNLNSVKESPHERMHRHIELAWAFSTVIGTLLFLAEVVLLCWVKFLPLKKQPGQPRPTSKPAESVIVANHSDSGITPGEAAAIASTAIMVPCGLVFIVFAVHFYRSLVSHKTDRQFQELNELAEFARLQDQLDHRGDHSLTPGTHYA

[3] = molecular target: T3, mOrai1-hOrai1 ECL2 (…) protein (human/mouse chimera, UniProt Q8BWG9 1-304 (mouse entry)); assay: FACS, 293EBNA; parameters: concentration or dose not given beside the values; remark: listed apart in the source
T3 construct: also called Ch
Excerpt: as §1, §2
T3 sequence (Q8BWG9 other isoform, or with tags, fused parts or gaps): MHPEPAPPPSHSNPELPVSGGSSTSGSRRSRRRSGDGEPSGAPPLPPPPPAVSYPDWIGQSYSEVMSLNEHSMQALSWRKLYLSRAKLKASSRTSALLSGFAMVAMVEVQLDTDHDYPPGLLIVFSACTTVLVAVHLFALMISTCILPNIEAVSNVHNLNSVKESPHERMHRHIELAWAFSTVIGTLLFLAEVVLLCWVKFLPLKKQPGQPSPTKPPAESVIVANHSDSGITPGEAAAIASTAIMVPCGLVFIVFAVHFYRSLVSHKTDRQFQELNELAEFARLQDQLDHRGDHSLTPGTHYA

[4] = molecular target: T4, mOrai1-hOrai1 ECL2 (AESVIV) protein (human/mouse chimera, UniProt Q8BWG9 1-304 (mouse entry)); assay: FACS, 293EBNA; parameters: concentration or dose not given beside the values
T4 construct: also called Ch
T4 sequence (Q8BWG9 other isoform, or with tags, fused parts or gaps): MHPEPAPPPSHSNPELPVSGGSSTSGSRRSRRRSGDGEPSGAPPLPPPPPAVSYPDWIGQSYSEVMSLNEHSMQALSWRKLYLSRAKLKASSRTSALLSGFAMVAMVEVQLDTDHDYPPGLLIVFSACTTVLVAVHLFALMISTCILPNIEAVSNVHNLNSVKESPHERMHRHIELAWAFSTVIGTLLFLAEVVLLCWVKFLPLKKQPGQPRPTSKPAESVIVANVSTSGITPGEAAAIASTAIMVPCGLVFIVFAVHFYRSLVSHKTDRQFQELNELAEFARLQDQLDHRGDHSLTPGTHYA
Excerpt: as §1, §2

[5] = molecular target: T5, mOrai1-hOrai1 ECL2 (…) protein (human/mouse chimera, UniProt Q8BWG9 1-304 (mouse entry)); assay: FACS, 293EBNA; parameters: concentration or dose not given beside the values; remark: listed apart in the source
T5 construct: also called Ch
Excerpt: as §1, §2
T5 sequence (Q8BWG9 other isoform, or with tags, fused parts or gaps): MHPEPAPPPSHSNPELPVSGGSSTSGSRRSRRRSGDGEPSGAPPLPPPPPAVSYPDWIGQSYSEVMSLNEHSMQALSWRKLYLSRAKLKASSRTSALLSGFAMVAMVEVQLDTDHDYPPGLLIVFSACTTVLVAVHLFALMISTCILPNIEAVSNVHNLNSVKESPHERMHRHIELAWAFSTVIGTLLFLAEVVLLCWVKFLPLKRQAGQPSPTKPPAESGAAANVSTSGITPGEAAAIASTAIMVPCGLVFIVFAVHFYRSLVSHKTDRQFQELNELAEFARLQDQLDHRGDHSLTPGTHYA

[6] = molecular target: T6, mOrai1-hOrai1 ECL2 (SPTKPPAE) protein (human/mouse chimera, UniProt Q8BWG9 1-304 (mouse entry)); assay: FACS, 293EBNA; parameters: concentration or dose not given beside the values
T6 construct: also called Ch
T6 sequence (Q8BWG9 other isoform, or with tags, fused parts or gaps): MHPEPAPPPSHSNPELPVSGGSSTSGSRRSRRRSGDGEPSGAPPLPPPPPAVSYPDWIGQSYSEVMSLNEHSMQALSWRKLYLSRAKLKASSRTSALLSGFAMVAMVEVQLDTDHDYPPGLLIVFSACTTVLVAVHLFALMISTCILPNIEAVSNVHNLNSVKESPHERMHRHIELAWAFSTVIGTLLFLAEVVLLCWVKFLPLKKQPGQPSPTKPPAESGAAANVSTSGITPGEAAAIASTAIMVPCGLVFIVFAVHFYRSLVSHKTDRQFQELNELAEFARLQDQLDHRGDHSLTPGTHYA
Excerpt: as §1, §2

[7] = molecular target: T7, hOrai1-mOrai1 ECL2 chimeric protein (human/mouse chimera, UniProt Q96D31 1-301); assay: FACS, 293EBNA; parameters: concentration or dose not given beside the values
T7 construct: human Orai1 with mouse ECL2; also called Ch
T7 sequence (Q96D31 other isoform, or with tags, fused parts or gaps mutant): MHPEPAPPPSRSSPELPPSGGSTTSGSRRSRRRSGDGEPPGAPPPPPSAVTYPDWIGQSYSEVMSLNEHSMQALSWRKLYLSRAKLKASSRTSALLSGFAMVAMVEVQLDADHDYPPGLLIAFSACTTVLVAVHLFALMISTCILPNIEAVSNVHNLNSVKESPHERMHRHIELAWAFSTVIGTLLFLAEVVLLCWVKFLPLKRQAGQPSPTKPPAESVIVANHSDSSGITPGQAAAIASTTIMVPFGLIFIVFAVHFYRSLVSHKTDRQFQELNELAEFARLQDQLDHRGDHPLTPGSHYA
Excerpt: as §1, §2

[8] = molecular target: T8, mOrai1-hOrai1 ECL2 (…) protein (human/mouse chimera, UniProt Q8BWG9 1-304 (mouse entry)); assay: FACS, 293EBNA; parameters: concentration or dose not given beside the values; remark: listed apart in the source
T8 construct: also called Ch
Excerpt: as §1, §2
T8 sequence (Q8BWG9 other isoform, or with tags, fused parts or gaps): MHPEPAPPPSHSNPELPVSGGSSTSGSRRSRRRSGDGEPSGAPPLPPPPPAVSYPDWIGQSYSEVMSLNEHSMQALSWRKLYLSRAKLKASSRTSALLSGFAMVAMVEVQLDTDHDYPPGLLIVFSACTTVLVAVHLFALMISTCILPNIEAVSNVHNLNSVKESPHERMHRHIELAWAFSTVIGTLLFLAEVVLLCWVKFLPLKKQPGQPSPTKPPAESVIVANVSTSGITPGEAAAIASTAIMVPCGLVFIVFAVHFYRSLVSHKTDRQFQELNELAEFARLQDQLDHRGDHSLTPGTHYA

[9] = molecular target: T9, hOrai1-mOrai1 ECL2 (VST) protein (human/mouse chimera, UniProt Q96D31 1-301); assay: FACS, 293EBNA; parameters: concentration or dose not given beside the values
T9 construct: also called Ch
T9 sequence (Q96D31 other isoform, or with tags, fused parts or gaps): as the sequence (Q96D31 other isoform, or with tags, fused parts or gaps mutant) above, with H224V, D226T counted along it
Excerpt: (§3) FIG. 17A-D illustrates the results of FACS analysis showing binding to the indicated mOrai1-hOrai1 ECL2 chimeric mutants expressed on the surface of HEK-293-EBNA cells. Transfected cells were stained first with recombinant monoclonal antibodies then counter-stained with a secondary phycoerythrin-labeled goat (“Gt”) anti-human (“Hu”) IgG F(ab′)₂ antibody fragment and visualized using FACS.
(§4) Representative results of FACS analysis of binding to the mutant hOrai1-mOrai1 ECL2 chimera described above by exemplary anti-hOrai1 antibodies of the present invention are shown in FIG. 17A-D, Table 10A and Table 10B below. Table 10A (Campaign 1) and Table 10B (Campaign 2) show the gain in binding ability of exemplary monoclonal antibodies to hOrai 1-mOrai 1 ECL2 chimera mutants as determined by FACS.

[10] = molecular target: T10, hOrai1-mOrai1 ECL2 (AANVST) protein (human/mouse chimera, UniProt Q96D31 1-301); assay: FACS, 293EBNA; parameters: concentration or dose not given beside the values
T10 construct: also called Ch
T10 sequence (Q96D31 other isoform, or with tags, fused parts or gaps): as the sequence (Q96D31 other isoform, or with tags, fused parts or gaps mutant) above, with V221A, H224V, D226T counted along it
Excerpt: as §3, §4

[11] = molecular target: T11, hOrai1-mOrai1 ECL2 (GAA) protein (human/mouse chimera, UniProt Q96D31 1-301); assay: FACS, 293EBNA; parameters: concentration or dose not given beside the values
T11 construct: also called Ch
T11 sequence (Q96D31 other isoform, or with tags, fused parts or gaps): as the sequence (Q96D31 other isoform, or with tags, fused parts or gaps mutant) above, with V219G, I220A, V221A counted along it
Excerpt: as §3, §4

[12] = molecular target: T12, hOrai1-mOrai1 ECL2 (PASGAA) protein (human/mouse chimera, UniProt Q96D31 1-301); assay: FACS, 293EBNA; parameters: concentration or dose not given beside the values
T12 construct: also called Ch
T12 sequence (Q96D31 other isoform, or with tags, fused parts or gaps): as the sequence (Q96D31 other isoform, or with tags, fused parts or gaps mutant) above, with A216P, E217A, V219G, I220A, V221A counted along it
Excerpt: as §3, §4

[13] = molecular target: T7, hOrai1-mOrai1 ECL2 chimeric protein; assay: FACS, 293EBNA; parameters: concentration or dose not given beside the values; remark: listed apart in the source
Excerpt: as §3, §4

[14] = molecular target: T13, hOrai1-mOrai1 ECL2 (…) protein (human/mouse chimera, UniProt Q96D31 1-301); assay: FACS, 293EBNA; parameters: concentration or dose not given beside the values
T13 construct: also called Ch
T13 sequence (Q96D31 other isoform, or with tags, fused parts or gaps): as the sequence (Q96D31 other isoform, or with tags, fused parts or gaps mutant) above, with A216P, E217A, V219G, I220A, V221A, H224V, D226T counted along it
Excerpt: as §3, §4

[15] = molecular target: T1, mOrai1-hOrai1 ECL2 (KPPAE) protein; assay: flow cytometry on HEK-293 cells transfected with the chimera (loss of binding experiment)
[16] = molecular target: T2, mOrai1-hOrai1 ECL2 (…) protein; assay: as above
[17] = molecular target: T3, mOrai1-hOrai1 ECL2 (…) protein; assay: as above; remark: listed apart in the source
[18] = molecular target: T4, mOrai1-hOrai1 ECL2 (AESVIV) protein; assay: as above
[19] = molecular target: T5, mOrai1-hOrai1 ECL2 (…) protein; assay: as above; remark: listed apart in the source
[20] = molecular target: T6, mOrai1-hOrai1 ECL2 (SPTKPPAE) protein; assay: as above
[21] = molecular target: T8, mOrai1-hOrai1 ECL2 (…) protein; assay: as above; remark: listed apart in the source

T1 sequence (Q8BWG9 other isoform, or with tags, fused parts or gaps): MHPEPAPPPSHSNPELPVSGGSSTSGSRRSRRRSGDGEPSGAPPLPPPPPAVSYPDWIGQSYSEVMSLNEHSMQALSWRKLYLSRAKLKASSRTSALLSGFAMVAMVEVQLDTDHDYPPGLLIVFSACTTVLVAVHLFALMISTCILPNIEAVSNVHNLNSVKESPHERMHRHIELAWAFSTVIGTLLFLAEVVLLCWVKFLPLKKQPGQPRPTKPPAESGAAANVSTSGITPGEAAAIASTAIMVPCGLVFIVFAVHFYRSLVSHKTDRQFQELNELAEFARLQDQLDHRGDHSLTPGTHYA

Row | POC (percent of control, FACS Geo Mean relative to binding to Ch. 1) [1] [%] | POC (percent of control, FACS Geo Mean relative to binding to Ch. 1) [2] [%] | POC (percent of control, FACS Geo Mean relative to binding to Ch. 1) [3] [%] | POC (percent of control, FACS Geo Mean relative to binding to Ch. 1) [4] [%] | POC (percent of control, FACS Geo Mean relative to binding to Ch. 1) [5] [%] | POC (percent of control, FACS Geo Mean relative to binding to Ch. 1) [6] [%] | POC (percent of control, FACS Geo Mean relative to binding to Ch. 1) [7] [%] | POC (percent of control, FACS Geo Mean relative to binding to Ch. 1) [8] [%] | percent of control (POC) of FACS Geo Mean [9] [%] | percent of control (POC) of FACS Geo Mean [10] [%] | percent of control (POC) of FACS Geo Mean [11] [%] | percent of control (POC) of FACS Geo Mean [12] [%] | percent of control (POC) of FACS Geo Mean [13] [%] | percent of control (POC) of FACS Geo Mean [14] [%] | binding result [15] | binding result [16] | binding result [17] | binding result [18] | binding result [19] | binding result [20] | Binder | also measured
1 | < 1 | < 1 | < 1 | < 1 | < 1 | < 1 | < 1 | < 1 | < 1 | < 1 | < 1 | < 1 | < 1 | < 1 | no binding | no binding | no binding | no binding | no binding | no binding | mAb 5A1.1 (antibody, human IgG2, fully human, Campaign 2; lambda CL-1) heavy: QVQLVQSGAEVKKPGASVKVPCKASGYTFTDYYINWVRQAPGQGLEWMGWINPNNGGTNYAQKFQGRVTMTRDTSISTAYMELRRLRSDDTAVYYCARERGGYEDWFDPWGQGTLVTVSSASTKGPSVFPLAPCSRSTSESTAALGCLVKDYFPEPVTVSWNSGALTSGVHTFPAVLQSSGLYSLSSVVTVPSSNFGTQTYTCNVDHKPSNTKVDKTVERKCCVECPPCPAPPVAGPSVFLFPPKPKDTLMISRTPEVTCVVVDVSHEDPEVQFNWYVDGVEVHNAKTKPREEQFNSTFRVVSVLTVVHQDWLNGKEYKCKVSNKGLPAPIEKTISKTKGQPREPQVYTLPPSREEMTKNQVSLTCLVKGFYPSDIAVEWESNGQPENNYKTTPPMLDSDGSFFLYSKLTVDKSRWQQGNVFSCSVMHEALHNHYTQKSLSLSPGK VL: QSVLTQPPSVSGAPGQRVTISCTGSSSNIGAGFDVHWYQQLPVTAPKLLIYGNRNRPSGVPARFSGSKSGTSASLAITGLQAEDEAVYYCQSYDSSLTVFGGGTKLTVL | binding result [21]: no binding
2 | < 1 | < 1 | < 1 | < 1 | < 1 | < 1 | < 1 | < 1 | < 1 | < 1 | < 1 | < 1 | < 1 | < 1 | no binding | no binding | no binding | no binding | no binding | no binding | mAb 5B5.2 (antibody, human IgG2, lambda, V domains shown, fully human IgG2 lambda, Campaign 2; same chains as 5B5.1) VH: QVQLVQSGAEVKKPGASVKVSCKASGYTFTDYYINWVRQAPGQGLEWMGWINPNSGGTDYAQKFQGRVTMTRDTSIRTAYMELNRLTSDDTAVYYCAREYGGYEDWFDPWGQGTLVTVSS VL: QSVLTQPPSVSGAPGQRVTISCTGSNSNIGAGFDVHWYQQLPGTVPKLLIYGNNNRPSGVPDRFSGSKSGTSASLAITGLQAEDEADYYCQSYDSRLTVFGGGTKLTVLG | binding result [21]: no binding

Source: patent publication US20120231006A1 (Amgen, published 2012)
